Test [1] has as its target T1, CEGPCR3 receptor (Caenorhabditis elegans, UniProt P90745).
T1 sequence (P90745 1-376): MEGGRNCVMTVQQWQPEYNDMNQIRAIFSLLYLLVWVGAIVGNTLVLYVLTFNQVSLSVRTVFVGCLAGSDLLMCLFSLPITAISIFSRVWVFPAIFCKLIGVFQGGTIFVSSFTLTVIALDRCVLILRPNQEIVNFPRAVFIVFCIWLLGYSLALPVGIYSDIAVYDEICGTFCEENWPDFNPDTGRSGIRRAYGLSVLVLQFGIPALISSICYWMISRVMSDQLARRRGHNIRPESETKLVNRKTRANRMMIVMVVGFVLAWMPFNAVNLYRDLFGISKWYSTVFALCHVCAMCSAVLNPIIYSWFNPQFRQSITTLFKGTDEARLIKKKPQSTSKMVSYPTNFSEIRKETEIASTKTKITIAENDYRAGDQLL
The test is described as follows: [35S]GTPγS binding assay, membranes of CHO cells transiently transfected with CEGPCR3. Format: biochemical, C. elegans. The protocol:
(§1) Recombinant pCR3.1 clones encoding invertebrate GPCR-like receptors were transformed into wild-type CHO-K1 cells and functional expression was achieved using a temperature-shift incubation protocol. The CHO-K1 cells were cultured at 37° C. in a humidified atmosphere of 5% CO2 in air in DMEM medium supplemented with 10% heat-inactivated fetal bovine serum (i.e., FBS), 10 μg/ml gentamicin, and 0.1 mM nonessential amino acids to give complete DMEM medium. Additionally, for incubations at temperatures lower than 37° C., the medium was fortified with 10 mM HEPES (pH 7.4). Cells were transfected with recombinant pCR3.1 clones containing GPCR-like receptor DNAs, using LipofectAMINE PLUS™, essentially according to the manufacturer's instructions. […] In separate plastic tubes, PLUS (20 μl/plate; Life Technologies) was added to 0.75 ml/plate of recombinant plasmid DNA in OptiMEM (5 μg/plate; Gibco/BRL—Life Technologies), mixed and incubated at room temperature for 15 minutes. Separately, LipofectAMINE (30 μl/plate) was mixed with 0.75 ml OptiMEM and added to the pre-complexed DNA/PLUS mixture and incubated at room temperature for 15 minutes. The culture medium was then replaced with serum-free transfection medium (DMEM, 5 ml/plate). The DNA-PLUS-LipofectAMINE complex was then added to the plates (1.5 ml/plate) and mixed gently into the medium, followed by a 3 hour incubation at 37° C. in 5% CO2. At this time, the medium was supplemented with complete DMEM medium containing 20% FBS (6.5 ml/plate) and incubation was continued at 37° C. in 5% CO2. After a total of 24 hours at 37° C. in 5% CO2, the medium was replaced with complete DMEM medium fortified with 10 mM HEPES (10 ml/plate) and the cells were moved to an incubator maintained at 28-30° C. in a humidified atmosphere of 5% CO2 in air. The incubation continued for an additional 24 hours, typically at the lower temperature indicated above. A plasmid encoding Green Fluorescent Protein (i.e., GFP, 4 μg/plate) was used for transient GFP expression in CHO-K1 cells to estimate the transfection yields under the same conditions as used for GPCR-like receptor polynucleotides.
(§2) To assess expression, membranes were prepared from transfected CHO-K1 cells. Transfected cells were washed once with ice-cold Dulbecco's phosphate-buffered saline (i.e., PBS), 5 ml per 10 cm plate, and the cells were scraped into 5 ml of the same buffer. Cell suspensions from multiple plates were combined and centrifuged at 500×g for 10 minutes at 4° C. The cell pellet was reconstituted in ice-cold TEE (25 mM Tris, pH 7.4, 5 mM EGTA, 5 mM EDTA). Convenient aliquots were snap-frozen in liquid nitrogen and stored at −70° C. After thawing, the cells were homogenized and centrifuged at 500×g for 5 minutes at 4° C. to pellet nuclei and unbroken cells. Tile supernatant was centrifuged at 47,000×g for 30 minutes at 4° C. The membrane pellet was washed once with TEE, resuspended in 20 mM HEPES, pH 7.4, 100 mM NaCl, 10 mM MgCl2, 1 mM EDTA (assay buffer), distributed into aliquots of 0.5-1.0 ml, and frozen in liquid nitrogen. Membrane aliquots were stored at −70° C. Membrane protein concentration was determined using the BCA Protein Assay Reagent from Pierce (Rockford, Ill.), with bovine serum albumin (i.e., BSA) as a standard.
(§3) Aliquots of cell membranes prepared as described above and stored at −70° C. were thawed, homogenized, and diluted into buffer containing 20 mM HEPES, pH 7.4, 10 mM MgCl2, 1 mM EDTA, and 100 mM NaCl at a concentration of 10-50 μg/ml. Reaction mixtures were prepared in 96-well polypropylene plate, Nunc. Twenty microliters of a 10× putative modulator compound (including but not limited to potential peptide ligands) solution or a water control (20 μl), 18.2 µM GDP (0.11 ml, 10 μM final concentration), and a membrane preparation were mixed and placed on ice. The modulator/ligand-GDP-membrane mixtures were incubated for 20 minutes at room temperature on a shaking platform and then placed on ice.
(Binding of GTPγS marks nucleotide exchange on a G protein.)

Test [2] addresses T2, CEGPCR12h receptor (Caenorhabditis elegans, UniProt Q20275).
T2 sequence (Q20275 1-402): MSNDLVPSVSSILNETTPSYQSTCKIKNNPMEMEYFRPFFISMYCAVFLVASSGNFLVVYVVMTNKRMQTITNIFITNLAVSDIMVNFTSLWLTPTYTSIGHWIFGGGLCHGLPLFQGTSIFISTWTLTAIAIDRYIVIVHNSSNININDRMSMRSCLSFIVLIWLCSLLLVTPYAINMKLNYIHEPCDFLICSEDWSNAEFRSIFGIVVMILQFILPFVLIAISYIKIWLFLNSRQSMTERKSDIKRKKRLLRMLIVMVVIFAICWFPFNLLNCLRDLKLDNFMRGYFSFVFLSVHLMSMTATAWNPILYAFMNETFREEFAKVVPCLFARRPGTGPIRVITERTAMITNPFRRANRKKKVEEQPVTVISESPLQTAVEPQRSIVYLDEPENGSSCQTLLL
The test is described as follows: [35S]GTPγS binding assay, CEGPCR12h expressed in CHO cells. Format: biochemical, C. elegans. As to conditions: Table 11; one range for the group; results apply to all CEGPCR12 isoforms; read-out: EC50 range. How it is done:
as §1, §2, §3

Test [3] addresses T3, CEGPCR5 (Caenorhabditis elegans, UniProt Q18179).
T3 sequence (Q18179 1-402): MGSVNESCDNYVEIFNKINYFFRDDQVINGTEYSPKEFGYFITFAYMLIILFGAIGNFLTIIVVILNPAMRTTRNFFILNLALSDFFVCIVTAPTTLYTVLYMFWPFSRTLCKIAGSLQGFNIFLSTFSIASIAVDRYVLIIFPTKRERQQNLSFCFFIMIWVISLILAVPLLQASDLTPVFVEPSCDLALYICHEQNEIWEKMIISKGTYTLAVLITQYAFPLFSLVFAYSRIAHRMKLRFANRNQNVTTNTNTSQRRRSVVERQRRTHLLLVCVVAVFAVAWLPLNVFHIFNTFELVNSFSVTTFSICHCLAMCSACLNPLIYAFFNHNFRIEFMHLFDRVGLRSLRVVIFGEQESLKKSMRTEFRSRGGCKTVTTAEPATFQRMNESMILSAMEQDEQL
The test is described as follows: [35S]GTPγS binding assay, CEGPCR5 expressed in CHO cells. Format: biochemical, C. elegans. How it is done: as §1, §2, §3

In test [4] the target is T4, CEGPCR4 (C. elegans).
T4 construct: Expressed in CHO cells; also called CEGPCR4 receptor; CEGPCR4/CHO membranes
T4 chain: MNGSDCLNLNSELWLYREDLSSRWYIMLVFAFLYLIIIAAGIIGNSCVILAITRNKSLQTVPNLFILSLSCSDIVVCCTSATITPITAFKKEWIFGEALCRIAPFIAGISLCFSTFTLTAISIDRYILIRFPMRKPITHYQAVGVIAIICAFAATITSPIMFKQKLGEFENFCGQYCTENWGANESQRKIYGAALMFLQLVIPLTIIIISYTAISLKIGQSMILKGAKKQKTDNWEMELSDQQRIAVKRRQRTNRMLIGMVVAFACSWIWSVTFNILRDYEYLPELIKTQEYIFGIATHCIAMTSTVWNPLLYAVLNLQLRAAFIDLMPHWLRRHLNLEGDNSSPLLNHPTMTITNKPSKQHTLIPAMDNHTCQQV
The test is described as follows: competition binding assay, CEGPCR4/CHO membranes; IC50 range printed once for block r39-r54.

The target of test [5] is T4, CEGPCR4. The test is described as follows: competition binding assay, CEGPCR4/CHO membranes; IC50 range printed once for block r9-r18.
Test [6] has as its target T4, CEGPCR4. The test is described as follows: competition binding assay, CEGPCR4/CHO membranes; IC50 range printed once for block r26-r35.
[7] abbreviates: EC50, single values, GTPγS assay.
[8] abbreviates: EC50 range, Table 7, one range for the group of peptides, cells 24 h 37° C. then 24 h 28° C.

Where no end group is shown, it is not given here. [ ]: non-standard residue; d: D form. Tyr(3-I) = N[C@@H](Cc1ccc(O)c(I)c1)C(=O)O

The EC50 is the midpoint of the concentration-response curve.

In the case of GPSGPLRF-NH2 [GPSGPLRF-NH2], the 50% effective concentration (EC50) in test [1] (setting [7]) is 422 nM; in test [1] (setting [8]) it was 150 to 400 nM.

Take GGPQGPLRF-NH2 [GGPQGPLRF-NH2]: the half-maximal effective concentration (EC50) in test [1] (setting [7]) is 152 nM; in test [1] (setting [8]), 150 to 400 nM; in test [2], 1500 to 3000 nM.

In the case of GNSFLRF-NH2 [GNSFLRF-NH2], the EC50 in test [1] (setting [7]) is 7900 nM; in test [1] (EC50 range, Table 7, cells 24 h 37° C. then 24 h 28° C.), ~8000 nM; in test [3] it was 80 to 800 nM. Moreover, in test [1] (membranes from cells transfected and maintained at 37° C.), the “receptor activation by matched ligand” value was “not detectably activated”. For the same molecule, in test [1] (ratio of EC50 values), the “potency lower than that of the two C. elegans flp15 peptides” value is listed as 19-52 fold. For the same molecule, the “ligand-induced [35S]GTPγS binding” value in test [1] (temperature shift to 28° C. 24 hours after transfection) is given as “significant stimulation”.

B1: 3-Iodo-Y-VPGVLRF-NH2 (peptide)
peptide: [Tyr(3-I)]VPGVLRF-NH2
modifications: N-terminus assumed
SMILES: CC(C)C[C@H](NC(=O)[C@@H](NC(=O)CNC(=O)[C@@H]1CCCN1C(=O)[C@@H](NC(=O)[C@@H](N)Cc1ccc(O)c(I)c1)C(C)C)C(C)C)C(=O)N[C@@H](CCCNC(=N)N)C(=O)N[C@@H](Cc1ccccc1)C(N)=O
notes: synthetic
With B1, the binding result in test [4] was “binds”.

As to YDVPGVLRF-NH2 (synthetic) [Y-DVPGVLRF-NH2], the binding result in test [4] is “binds”.

Regarding EIPGVLRF-NH2 (flp18) [EIPGVLRF-NH2], in test [5], the binding result is recorded as “binds”.

B2: 3-Iodo-Y-GVLRF-NH2 (peptide)
peptide: [Tyr(3-I)]GVLRF-NH2
modifications: N-terminus assumed
SMILES: CC(C)C[C@H](NC(=O)[C@@H](NC(=O)CNC(=O)[C@@H](N)Cc1ccc(O)c(I)c1)C(C)C)C(=O)N[C@@H](CCCNC(=N)N)C(=O)N[C@@H](Cc1ccccc1)C(N)=O
notes: synthetic
For the molecule B2, in test [4], the binding result is on record as “binds”.

Regarding Ac-VPGVLRF-NH2 (synthetic) [Ac-VPGVLRF-NH2], in test [4], the binding result is on record as “binds”.

B3: 3-Iodo-Y-PGVLRF-NH2 (peptide)
peptide: [Tyr(3-I)]PGVLRF-NH2
modifications: N-terminus assumed
SMILES: CC(C)C[C@H](NC(=O)[C@@H](NC(=O)CNC(=O)[C@@H]1CCCN1C(=O)[C@@H](N)Cc1ccc(O)c(I)c1)C(C)C)C(=O)N[C@@H](CCCNC(=N)N)C(=O)N[C@@H](Cc1ccccc1)C(N)=O
notes: synthetic
B3: in test [4], the binding result was “binds”.

As to YPGVLRF-NH2 (synthetic) [Y-PGVLRF-NH2], the binding result in test [4] was “binds”.

Turning to SDNFMRF-NH2 [SDNFMRF-NH2], the binding result in test [6] was “binds”.

Turning to PDNFMRF-NH2 [PDNFMRF-NH2], in test [6], the binding result is “binds”.

For EIVFHQISPIFFRF-NH2 (flp14 as printed) [EIVFHQISPIFFRF-NH2], the binding result in test [6] is given as “binds”.

DVPGVLRF-NH2 (flp18) [DVPGVLRF-NH2]: the binding result in test [4] is “binds”.

Regarding YVPGVLRF-NH2 (synthetic) [Y-VPGVLRF-NH2], in test [4], the binding result is recorded as “binds”.

As for SAEPFGTMRF-NH2 (not fully specified; printed as SAEPFGTMRF-NH2, flp3) [SAEPFGTMRF-NH2], in test [6], the binding result is given as “binds”.

As to TNRNFLRF-NH2 [TNRNFLRF-NH2 (Lobster peptide II)], in test [6], the binding result is “binds”.

B4: NGAPQPFVRF-NH2 (peptide)
peptide: NGAPQPFVRF-NH2
notes: flp11 (species cell stands one row higher, r34c4)
With B4, the binding result in test [6] is given as “binds”.

For the molecule SPLGTMRF-NH2 (flp3) [SPLGTMRF-NH2], the binding result in test [6] is on record as “binds”.

With GGPQGPLRF-NH2 (flp15) [GGPQGPLRF-NH2], in test [6], the binding result is reported as “binds”.

These data come from patent publication US6632621B1, “G protein-coupled receptor-like receptors and modulators thereof” (priority 1999, dated 2003).
